Test results published in patent US20260274955A1 (JANUX THERAPEUTICS, published 2026).

Experiments:
[1] = target: T1, Anti-CD28 Fab (SEQ ID NOs: 202, 203); test: phage binding ELISA, Fab on plate;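 note: clonal phage supernatant ELISA, wells preincubated with CD28 antigen or blocking buffer only, then bound phage detected using HRP-linked anti-M13 antibody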
T1 construct: biotinylated and captured on neutravidin coated plates in the phage ELISA
T1 sequence (VH, as listed by the source, chain 1 of 2): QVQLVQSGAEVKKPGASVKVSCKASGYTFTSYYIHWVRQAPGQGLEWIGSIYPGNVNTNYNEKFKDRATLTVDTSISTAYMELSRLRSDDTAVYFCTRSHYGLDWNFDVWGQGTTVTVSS
T1 sequence (VL, as listed by the source, chain 2 of 2): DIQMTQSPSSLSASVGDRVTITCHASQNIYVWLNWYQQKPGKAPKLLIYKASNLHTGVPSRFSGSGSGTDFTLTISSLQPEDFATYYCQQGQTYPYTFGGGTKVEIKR
Method: After panning, phage infected bacteria were plated out and colonies picked into 96 well blocks. Clonal phage was then amplified and separated from bacterial cells via centrifugation.
Clonal phage were harvested as crude supernatants and screened via standard ELISAs. […] Prior to the addition of clonal phage, wells were incubated with blocking buffer and CD28 antigen or blocking buffer alone. Without washing or aspirating, clonal phage supernatants were then added to the wells and incubated for a short time. Wells were then washed followed by detection of bound phage using a horse radish conjugated anti-M13 antibody. Clonal phage of interest were then sent for sequence analysis.

[2] = target: Anti-CD28 Fab (SEQ ID NOs: 202, 203); test: phage binding ELISA on captured Fab;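 note: clonal phage supernatants added briefly to wells pre-incubated with CD28 antigen or with blocking buffer only, then washed, bound phage read by ELISA using HRP-coupled anti-M13 antibody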
Target sequence in this assay (VH, as listed by the source, chain 1 of 2): as the sequence (VH, as listed by the source, chain 1 of 2) above
Target sequence in this assay (VL, as listed by the source, chain 2 of 2): as the sequence (VL, as listed by the source, chain 2 of 2) above
Method: Clonal phage were harvested as crude supernatants and screened via standard ELISAs. […] Prior to the addition of clonal phage, wells were incubated with blocking buffer and CD28 antigen or blocking buffer alone. Without washing or aspirating, clonal phage supernatants were then added to the wells and incubated for a short time. Wells were then washed followed by detection of bound phage using a horse radish conjugated anti-M13 antibody.

Binder | Anti-CD28 Fab (SEQ ID NOs: 202, 203) signal [1] | Anti-CD28 Fab signal [2]
GCAAGFHYPWPLCL [Phage-1033] | 1.74 | –
YCEGHSWANLGKCL [Phage-85] | – | 2.32
RCRAGFSYNWPYCM [Phage-1041] | 1.72 | –
WCAAVFSYSWPLCL [Phage-1032] | 1.75 | –
TCSAGANYEWPWCF [Phage-1062] | 1.62 | –
TCAAGANYPWPLCL [Phage-1027] | 1.75 | –
GCAAGANYPWPLCL [Phage-1069] | 1.59 | –
TCAAGAHWIWPWCE [Phage-1066] | 1.61 | –
SCSAGFHYPWPICL [Phage-1017] | 1.79 | –
TCAAGAVWEWPMCF [Phage-1026] | 1.76 | –
TCAAGAVWGWPLCF [Phage-1039] | 1.73 | –
LCSAGAMYQWPTCL [Phage-1061] | 1.63 | –
LCSAGAMWQWPTCL [Phage-1097] | 1.51 | –
TCAAGAAWPWPHCL [Phage-1035] | 1.73 | –
GCAAGAHYPWPFCL [Phage-1025] | 1.76 | –
MCSAGATYPWPMCL [Phage-1037] | 1.73 | –
MCSAGATYPWPYCL [Phage-1057] | 1.64 | –
WCTAGFSYKLSICL [Phage-1060] | 1.63 | –
MCTAGALYNWPTCL [Phage-1019] | 1.78 | –
YCEGHLPEYMQKCM [Phage-136] | – | 2.23
LCSAGATYPWPWCM [Phage-1058] | 1.64 | –
WCAAVFSYTWSPCL [Phage-981] | 1.96 | –
TCAAGAHYAWPECF [Phage-1040] | 1.72 | –

Binder | Anti-CD28 Fab (SEQ ID NOs: 202, 203) signal [1] | Anti-CD28 Fab signal [2]
WCAAGATWPWPLCI [Phage-1042] | 1.7 | –
WCAEFFNYHWPLCF [Phage-1021] | 1.77 | –
TCAAGAHYEWPMCY [Phage-1063] | 1.61 | –
TCAAGASFPWPWCL [Phage-1029] | 1.75 | –
TCAAGATYPWPSCL [Phage-1038] | 1.73 | –
TCAAGATWPWPSCL [Phage-1065] | 1.61 | –
TCSAGFSLQLSICL [Phage-1022] | 1.77 | –
TCAAGAGWQWPMCF [Phage-1067] | 1.6 | –
TCSAGAMYPWPWCV [Phage-1031] | 1.75 | –
YCSAGAQWPWPICL [Phage-1014] | 1.79 | –
TCAAGASYQWPLCF [Phage-1015] | 1.79 | –
YCQGHLPMYMEKCL [Phage-80] | – | 2.34
YCQGHLPIYMEKCL [Phage-132] | – | 2.24
YCEGHLPMYMDKCL [Phage-140] | – | 2.22
YCQGHLPMYMAKCL [Phage-77] | – | 2.34
TCAAGAAYTWPACF [Phage-982] | 1.96 | –
SCAAGASYPWPQCL [Phage-1023] | 1.77 | –
YCDGHSREYIAKCL [Phage-106] | – | 2.29
DCWGDAPYPWRVCL [Phage-1059] | 1.64 | –
LCEEFFHYSWPVCL [Phage-1034] | 1.74 | –
MCAAGAMYAWPTCL [Phage-1028] | 1.75 | –
YCEGHSSEYMLKCL [Phage-103] | – | 2.3
LCKPGVPYQWPTCL [Phage-1018] | 1.78 | –

Binder | Anti-CD28 Fab (SEQ ID NOs: 202, 203) signal [1] | Anti-CD28 Fab signal [2]
TCAAGAHYPWPYCL [Phage-1020] | 1.77 | –
YCDGHLPQYMNKCL [Phage-134] | – | 2.23
YCEGHSPEYMYKCL [Phage-138] | – | 2.23
YCDGHSAEYMAKCL [Phage-137] | – | 2.23
TCAAGATYEWPYCF [Phage-980] | 1.96 | –
SCAAGAPYPWPECL [Phage-1071] | 1.59 | –
TCAAGATYEWPTCL [Phage-983] | 1.96 | –
YCDGHLPEYREKCF [Phage-86] | – | 2.32
TCAAGAYYAWPMCL [Phage-1070] | 1.59 | –
LCTAGLAYNWPTCL [Phage-1024] | 1.77 | –
TCSAGAAYAWPYCL [Phage-1072] | 1.59 | –
SCAAVFPYPWPPCF [Phage-1030] | 1.75 | –
YCDGHAKEYMWKCL [Phage-102] | – | 2.3
SCSAVFSYAWPTCL [Phage-1064] | 1.61 | –
YCDGHAPQYMRKCL [Phage-101] | – | 2.3
PCAAGAMWPWPVCL [Phage-986] | 1.95 | –
YCDGHSMEYMSKCL [Phage-139] | – | 2.22
SCAAGASYSWPACF [Phage-1016] | 1.79 | –
SCAAGATYEWPRCL [Phage-1068] | 1.6 | –
SCAAGATYEWPICL [Phage-1074] | 1.59 | –
YCEGHSAQYMSKCL [Phage-105] | – | 2.29
